The values below come from patent US20180155434A1 (UNIVERSITY OF TOYAMA, published 2018).

T1: mouse IL-5Rα on Y16 cells (mouse, UniProt P21183 18-415)
T1 construct: whole, on cells; also called IL-5Rα chain; mouse IL-5Rα-expressing cell Y16
T1 sequence (looked up): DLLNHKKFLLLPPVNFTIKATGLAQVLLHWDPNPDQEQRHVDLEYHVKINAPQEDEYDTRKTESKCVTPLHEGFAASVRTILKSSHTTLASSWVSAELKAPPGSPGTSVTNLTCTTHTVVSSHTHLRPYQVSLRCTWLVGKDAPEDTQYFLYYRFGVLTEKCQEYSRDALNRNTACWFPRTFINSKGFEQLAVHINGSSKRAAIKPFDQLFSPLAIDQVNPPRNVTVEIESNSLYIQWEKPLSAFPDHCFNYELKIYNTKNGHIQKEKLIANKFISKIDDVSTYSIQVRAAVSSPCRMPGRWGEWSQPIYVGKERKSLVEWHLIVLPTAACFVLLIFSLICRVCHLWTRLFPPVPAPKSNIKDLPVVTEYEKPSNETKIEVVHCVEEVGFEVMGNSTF

B1: H7 hIgG1 (DF) (H7-1) (antibody, V domains shown)
VH: EVQLQQSGAELGKPGTSVKLSCKVSGYNIKNTYIHWVNQRPGKGLEWIGRIDPANGNPIYAEKFKNKATLTADTSSNTAYMQLSQLKSDDTAIYFCAMHRGHSMGPGPYVMDAWGQGASVTVSS
VL: DIQMTQSPASLSASLGETVTIECRTSEDIYNGLAWYQQKPGKSPQLLIYNANSLHTGVPSRFSGSGSGTQYSLKINSLQSEDVASYCCQQYSNYPFTFGSGTKLEIK
notes: also called core fucose-deficient H7 chimeric antibody; Potelligent-type H7 chimeric antibody
B2: H7 hIgG1 (N297A) (H7-3) (antibody, V domains shown)
VH: B1 VH
VL: B1 VL
notes: Rat H7 variable regions on a human IgG1 constant region with N297A (EU index), so it lacks the N-linked sugar chain; Human kappa light chain constant region; also called N-linked sugar chain-deficient H7 chimeric antibody
B3: H7 (CS) hIgG1 (DF) (H7-2) (antibody, V domains shown)
VH: B1 VH
VL: B1 VL with C87S
notes: Human IgG1 and human kappa constant regions, no core fucose (FUT8-/- CHO); also called Cys substitution variant H7-2; H7 (CS) altered form
B4: H7 (CS) hIgG1 (N297A) (H7-4) (antibody, V domains shown)
VH: B1 VH
VL: B1 VL with C87S
notes: H7 VL with Cys 87 replaced by Ser. Human IgG1 constant region with N297A (EU index) and human kappa constant region; also called H7 (CS) altered form
B5: rtDNP-1 hIgG1 (DF) antibody (KM8808) (antibody, V domains shown)
VH: EVQLQESGPGLVKPSQSLSLTCSVTGYSITSGYWNWIRKFPGNKMEWIGYISYSGSTYYNPSLKSRISITRDTSKNQFFLQLNSVTTEDTATYYCARWGVRHYFDYWGQGVMATVSS
VL: DVVMTQTPVSLPVSLGGQASISCRSSQSLANSYGNTYLSWYLQKPGQSPQLLIYRVSNTFSGVPDRFSGSGSGTDFTLKISRVEPEDLGDYYCLQGTHQPYTFGAGTKLELK
notes: Isotype control; Rat anti-DNP variable regions on a human IgG1 constant region, no core fucose; also called core fucose-deficient anti-dinitrophenol (DNP) rat/human chimeric antibody
B6: rtDNP-1 hIgG1 (N297A) antibody (KM6161) (antibody, V domains shown)
VH: B5 VH
VL: B5 VL
notes: Isotype control; Rat anti-DNP variable regions on a human IgG1 constant region with N297A; also called N-linked sugar chain-deficient anti-DNP rat/human chimeric antibody

Changes are numbered by the printed parent chain. In names and notes the source's numbering stands.

For this assay, the target named is T1, mouse IL-5Rα on Y16 cells. Put plainly: flow cytometry on Y16 cells expressing mouse IL-5R, detection with goat F(ab')2 anti-human IgG PE, Geomean. The procedure:
The chimeric antibodies prepared in Example 8 were evaluated for their antigen binding activity using a mouse-derived cell line Y16 expressing IL-5R. The Y16 cells were washed with SM (staining medium containing 2% FCS, 0.05% NaN₃, and 1 mM EDTA in PBS). Then, Mouse BD Fc Block (manufactured by Becton, Dickinson and Company) was added thereto at a concentration of 5 μg/mL, and the mixture was left standing at 4° C. for 30 min. The cells were inoculated at a cell number of 1×10⁵ cells/well to a 96-well U-bottom plate, and each chimeric antibody adjusted to a final concentration of 10000, 2500, 625, 156, 39, 10, 2.4, or 0.6 ng/mL was added thereto, followed by reaction at 4° C. for 60 min. The rat/human chimeric control antibodies used were rtDNP-1 hIgG1 (DF) antibody (KM8808) and rtDNP-1 hIgG1 (N297A) antibody (KM6161). The nucleotide sequences and amino acid sequences of the variable regions of each isotype control antibody are shown in SEQ ID NOs: 29 to 34. After washing of the cells with SM, Goat F(ab′)₂ Anti-Human IgG PE (γ chain specific) (manufactured by Southern Biotech) diluted 500-fold with SM was added thereto, followed by reaction at 4° C. for 60 min. After washing of the cells with SM, the cells were resuspended in 50 μL of SM. Fluorescence intensity was measured by FCM (flow cytometer FACS Canto II (manufactured by Becton, Dickinson and Company)). The data was analyzed using FlowJo 7.65 (manufactured by Tomy Digital Biology Co., Ltd.) to calculate a Geomean value at each concentration.
Background: In flow cytometry, cells or beads pass a laser one at a time.
A word on the EC50 (read off the curve): it is the midpoint of the concentration-response curve. A lower EC50 (read off the curve) goes with a more potent agent. Consider B1, for which the “EC50 (read off the curve)” value is around 0.06 µg/mL.

For B2, the “EC50 (read off the curve)” value is around 0.06 µg/mL.

For B3, the “EC50 (read off the curve)” value was around 0.04 µg/mL.

Turning to B4, the concentration giving a half-maximal response (EC50 (read off the curve)) is around 0.04 µg/mL.

In the case of B5, the binding result is recorded as “no binding (tested: 10 µg/mL)”.

With B6, the binding result is “no binding (tested: 10 µg/mL)”.
